This is an account of results in publication PMC5798830, “Hexons from adenovirus serotypes 5 and 48 differentially protect adenovirus vectors from neutralization by mouse and human serum” (PLoS ONE, 2018).

Test [1] concerns the target T1, mouse coagulation factor X (mouse).
T1 construct: also called mouse FX; FX; source: bought: Haematologic Technologies, Inc
Kind of test: SPR; Biacore T200; about 1,200 reference units of Ad5.0, Ad5:H48 or Ad48 particles immobilised on a CM5 chip; FX as analyte at four concentrations (max 42 nM for Ad5.0 and Ad5:H48, 212 nM for Ad48); 10 mM HEPES, 150 mM NaCl, 1 mM CaCl2, 0.5 mM MgCl2, 0.1% BSA, 0.05% polysorbate 20, pH 7.4; 50 uL/min; global fit to a 1:1 kinetic model. The settings on record: both partners purified. (In general: Surface plasmon resonance follows binding to a sensor surface in real time, without labels.)

Test [2] addresses T2, human coagulation factor X (human).
T2 construct: Probably plasma zymogen with Gla residues in the light chain (surmised); also called human FX; FX; source: bought: Haematologic Technologies, Inc
The description is as above. The settings on record: both partners purified.

B1: Ad5.0 vector (adenovirus serotype 5 vector with a wild-type Ad5 capsid) (complex)
chain: ATPSMMPQWSYMHISGQDASEYLSPGLVQFARATETYFSLNNKFRNPTVAPTHDVTTDRSQRLTLRFIPVDREDTAYSYKARFTLAVGDNRVLDMASTYFDIRGVLDRGPTFKPYSGTAYNALAPKGAPNPCEWDEAATALEINLEEEDDDNEDEVDEQAEQQKTHVFGQAPYSGINITKEGIQIGVEGQTPKYADKTFQPEPQIGESQWYETEINHAAGRVLKKTTPMKPCYGSYAKPTNENGGQGILVKQQNGKLESQVEMQFFSTTEATAGNGDNLTPKVVLYSEDVDIETPDTHISYMPTIKEGNSRELMGQQSMPNRPNYIAFRDNFIGLMYYNSTGNMGVLAGQASQLNAVVDLQDRNTELSYQLLLDSIGDRTRYFSMWNQAVDSYDPDVRIIENHGTEDELPNYCFPLGGVINTETLTKVKPKTGQENGWEKDATEFSDKNEIRVGNNFAMEINLNANLWRNFLYSNIALYLPDKLKYSPSNVKISDNPNTYDYMNKRVVAPGLVDCYINLGARWSLDYMDNVNPFNHHRNAGLRYRSMLLGNGRYVPFHIQVPQKFFAIKNLLLLPGSYTYEWNFRKDVNMVLQSSLGNDLRVDGASIKFDSICLYATFFPMAHNTASTLEAMLRNDTNDQSFNDYLSAANMLYPIPANATNVPISIPSRNWAAFRGWAFTRLKTKETPSLGSGYDPYYTYSGSIPYLDGTFYLNHTFKKVAITFDSSVSWPGNDRLLTPNEFEIKRSVDGEGYNVAQCNMTKDWFLVQMLANYNIGYQGFYIPESYKDRMYSFFRNFQPMSRQVVDDTKYKDYQQVGILHQHNNSGFVGYLAPTMREGQAYPANFPYPLIGKTAVDSITQKKFLCDRTLWRIPFSSNFMSMGALTDLGQNLLYANSAHALDMTFEVDPMDEPTLLYVLFEVFDVVRVHRPHRGVIETVYLRTPFSAGNATT
Take B1: the Kd (commonly a measure of binding affinity in units of concentration) in test [1] amounted to 0.42 nM; in test [2], 0.82 nM.
